From article PMC11868609 (Communications Biology, 2025)
Where “and” joins values, the source holds several entries; their conditions need not be identical. Equal entries are not always repeated.

T1: VapC35 toxin (M. tuberculosis, UniProt P9WF67 1-135)
T1 sequence: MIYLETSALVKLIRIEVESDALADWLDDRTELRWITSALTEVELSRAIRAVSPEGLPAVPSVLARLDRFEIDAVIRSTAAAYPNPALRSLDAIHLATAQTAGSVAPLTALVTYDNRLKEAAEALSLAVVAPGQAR

B1: VapC3 toxin (natural protein)
chain: MRASPTSPPEQVVVDASAMVDLLARTSDRCSAVRARLARTAMHAPAHFDAEVLSALGRMQRAGALTVAYVDAALEELRQVPVTRHGLSSLLAGAWSRRDTLRLTDALYVELAETAGLVLLTTDERLARAWPSAHAIG
B2: VapB3 antitoxin (natural protein)
chain: MLSRRTKTIVVCTLVCMARLNVYVPDELAERARARGLNVSALTQAAISAELENSATDAWLEGLEPRSTGARHDDVLGAIDAARDEFEA
B3: VapB35 antitoxin (natural protein)
chain: MNEVSIRTLNQETSKVLARVKRGEEINLTERGKVIARIIPASAGPLDSLISTGSVQPARVHGPAPRPTIPMRGGLDSGTLLERMRAEERY

Experiments:
SEC-MALS = target: the molecule itself; assay: SEC-MALS
VapC35 toxin [1] = target: T1, VapC35 toxin; assay: SEC-MALS
VapC3 toxin [2] = target: B1; assay: SEC-MALS
VapC35 toxin [3] = target: T1, VapC35 toxin; assay: MST
VapC3 toxin [4] = target: B1; assay: MST

Binder | stoichiometry N (SEC-MALS) | stoichiometry N (VapC35 toxin [1]) | stoichiometry N (VapC3 toxin [2]) | Kd (VapC35 toxin [3]) | Kd (VapC3 toxin [4])
B1 | 2 subunits | – | – | – | –
B2 | – | 0.5 antitoxin chains per toxin chain (2:4) and 1 antitoxin chains per toxin chain (4:4) | 0.5 antitoxin chains per toxin chain (2:4) and 1 antitoxin chains per toxin chain (4:4) | ~14 nM | ~7 nM
B3 | – | 0.5 antitoxin chains per toxin chain (2:4) and 1 antitoxin chains per toxin chain (4:4) | – | 1 nM | –
